Data: FireProtDB (doi:10.1021/bi0525223)

Settings: Lithobates pipiens, pH 5.5, sodium acetate 100 mM, reversible: Yes, whole UniProt chain shown

B1: Protein P-30 wild type, P22069 (protein)
chain: QDWLTFQKKHITNTRDVDCDNIMSTNLFHCKDKNTFIYSRPEPVKAICKGIIASKNVLTTSEFYLSDCNVTSRPCKYKLKKSTNKFCVTCENQAPVHFVGVGSC
In the case of B1, the “denaturant midpoint (higher = more stable)” value (20 °C, GdnHCl, Fluorescence) is reported as 4.4 M and the Tm (Thermal, DSC) is reported as 88.5 °C.
